{"source": "patent US9724426B2", "about": "“Agents, uses and methods” (AFFINICON APS, priority 2009, dated 2017)", "molecules": {"B1": {"name": "Mac2-158: murine anti-human CD163 mAb binding SRCR domain 1; VH SEQ ID NO:20, VL SEQ ID NO:21; IQ Products (antibody, V domains shown)", "VH": "DVQLQESGPGLVKPSQSLSLTCTVTGYSITSDYAWNWIRQFPGNKLEWMGYITYSGITNYNPSLKSQISITRDTSKNQFFLQLNSVTTEDTATYYCVSGTYYFDYWGQGTTLTVSS", "VL": "SVVMTQTPKSLLISIGDRVTITCKASQSVSSDVAWFQQKPGQSPKPLIYYASNRYTGVPDRFTGSGYGTDFTFTISSVQAEDLAVYFCGQDYTSPRTFGGGTKLEIKRA", "modifications": "Mac2-158 VH sequence; Mac2-158 VL sequence", "notes": "IQ Products"}}, "assay_type_in_all_cases": "cell-based", "key": {"[1]": {"biological_target": "T1, CD163 on CD14+ peripheral blood monocytes (Homo sapiens, UniProt Q86VB7)", "T1 construct": "endogenous in cells; host or cells: human peripheral blood monocytes, monocyte-derived macrophages, blood dendritic cells", "T1 sequence (Q86VB7 42-1156)": "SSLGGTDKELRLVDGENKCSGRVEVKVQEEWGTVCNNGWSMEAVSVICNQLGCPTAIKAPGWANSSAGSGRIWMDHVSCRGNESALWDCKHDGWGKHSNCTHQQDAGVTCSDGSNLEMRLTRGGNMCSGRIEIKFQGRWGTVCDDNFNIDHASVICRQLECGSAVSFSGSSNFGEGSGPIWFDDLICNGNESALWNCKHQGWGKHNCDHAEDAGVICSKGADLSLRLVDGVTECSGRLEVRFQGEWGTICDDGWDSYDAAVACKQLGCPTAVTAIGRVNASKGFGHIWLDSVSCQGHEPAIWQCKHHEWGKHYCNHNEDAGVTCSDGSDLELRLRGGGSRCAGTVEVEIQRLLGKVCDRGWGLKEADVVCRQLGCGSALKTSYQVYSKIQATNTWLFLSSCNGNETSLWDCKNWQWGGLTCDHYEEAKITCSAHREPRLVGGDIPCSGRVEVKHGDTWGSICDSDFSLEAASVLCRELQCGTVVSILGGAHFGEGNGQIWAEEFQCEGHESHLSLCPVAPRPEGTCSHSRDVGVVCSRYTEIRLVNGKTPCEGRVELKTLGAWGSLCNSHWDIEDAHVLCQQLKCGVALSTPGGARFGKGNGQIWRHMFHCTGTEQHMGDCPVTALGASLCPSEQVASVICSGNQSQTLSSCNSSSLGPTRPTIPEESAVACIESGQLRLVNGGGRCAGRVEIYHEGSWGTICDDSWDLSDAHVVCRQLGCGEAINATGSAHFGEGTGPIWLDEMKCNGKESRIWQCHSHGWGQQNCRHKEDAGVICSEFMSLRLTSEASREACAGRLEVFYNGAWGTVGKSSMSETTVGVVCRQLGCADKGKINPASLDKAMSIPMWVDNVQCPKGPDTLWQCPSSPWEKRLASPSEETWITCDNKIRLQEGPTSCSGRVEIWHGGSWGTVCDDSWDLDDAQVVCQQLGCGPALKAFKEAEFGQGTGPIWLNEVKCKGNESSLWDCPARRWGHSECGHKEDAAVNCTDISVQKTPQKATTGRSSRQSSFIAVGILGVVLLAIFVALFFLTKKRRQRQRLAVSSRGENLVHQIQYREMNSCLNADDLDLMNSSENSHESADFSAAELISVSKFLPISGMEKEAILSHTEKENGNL", "assay": "Quantitative flow cytometry of monocyte surface CD163 expression with different anti-CD163 clones", "experimental": "Freshly drawn peripheral whole blood samples or PBMC (approx. 3×10^6 cells) were stained with isotype-matched control antibody or a relevant antibody for one hour at 4° C. in the dark. When staining whole blood, erythrocytes were lysed for 15 min with 4° C. cold solution of ammonium chloride. When indirect immunofluoresence staining was required, cells were initially incubated with unconjugated primary CD163 antibody for one hour at 4° C., washed three times with D-PBS, pH 7.4, followed by incubation with goat anti-mouse-conjugated Alexa-Fluor® 488 (1:200 dilution; Molecular Probes, Invitrogen, Carlsbad, Calif., USA) for one hour at 4° C. in the dark. The stained cells were washed twice three D-PBS, pH 7.4, re-suspended in 400 μl FACSflow (Becton Dickinson, San Jose, Calif., USA), and kept on ice until analysis. All samples were analyzed using a FACSCalibur flow cytometer and compensated for spectral overlap using FlowJo for Macintosh software version 8.3 (TreeStar, San Carlos, Calif.). For CD163 density quantitation, flow cytometric estimation of antibodies bound/cell (ABCs) was performed using Quantibrite PE beads (Becton Dickinson, San Jose, Calif., USA) as recommended by the manufacturer. After the cells were stained, as detailed, a set of 4 pre-calibrated fluorescently labeled beads was used for standardization before the samples were acquired. The Quantibrite PE beads were run at the same instrument settings as the assay, and the linear regression obtained using the Quantibrite PE beads was used to convert the FL2 linear fluorescence staining of cell population into the number of (CD163) PE molecules bound per cell (ABC)."}, "[2]": {"biological_target": "T2, CD163 on peripheral blood dendritic cells (Homo sapiens, UniProt Q86VB7)", "T2 construct": "endogenous in cells; host or cells: human peripheral blood monocytes, monocyte-derived macrophages, blood dendritic cells", "T2 sequence (Q86VB7 42-1156)": "as above", "assay": "Flow cytometry of CD163 expression on peripheral blood dendritic cells", "conditions": "CD14-ILT3+HLA-DR+ dendritic cells", "description": "Freshly drawn peripheral whole blood samples (approx. 3×10^6 cells) were stained with isotype-matched control antibody (Mouse IgG1 PE, k isotype control, MOPC-21, BD Pharmingen™, San Diego, Calif., USA) or a relevant antibody (anti-CD3 FITC, UCHT1, BD Biosciences, San Diego, Calif., USA; anti-CD11c FITC, KB90, DAKO A/S, Glostrup, Denmark; anti-CD14 FITC, RMO52, IOTests®, Beckman and Coulter, Marseille, France; anti-CD16 FITC, 3G8, BD Biosciences, San Diego, Calif., USA; anti-CD19 FITC, SJ25C1, BD Biosciences, San Diego, Calif., USA; anti-CD20 FITC, CAT 13.6E12, Diatec.com A/S, Oslo, Norway; anti-CD56 FITC, NCAM16.2, BD Biosciences, San Diego, Calif., USA; anti-CD91 FITC, A2MR-a2, BD Biosciences, San Diego, Calif.; anti-HLA-DR FITC, EDU-1, Diatec.com A/S, Oslo, Norway; anti-CD163 PE, MAC2-158, IQ Products, Groningen, The Netherlands; anti-CD163 PE, GHI/61, BD Biosciences, CA, USA; anti-ILT3/CD85k PE-Cy5, ZM3.8, IOTests®, Beckman and Coulter, Marseille, France; anti-HLA-DR PerCP, L234, BD Biosciences, San Diego, Calif.; anti-CD4 APC, EDU-2, Diatec.com A/S, Oslo, Norway; anti-CD14 APC, 18D11, Diatec.com A/S, Oslo, Norway) for 15 minutes at room temperature in the dark. […] For CD163 density quantitation, flow cytometric estimation of antibodies bound/cell (ABCs) was performed using Quantibrite PE beads (Becton Dickinson, San Jose, Calif., USA) as recommended by the manufacturer. […]"}, "[3]": {"tested_on": "LPS induction of TNF production in human in vitro matured macrophages", "assay": "Dexamethasone treatment of cultivated pro-inflammatory macrophages, soluble TNF by cytometry bead array", "conditions": "without dexamethasone; results not shown", "experimental": "Monocytes were resuspended in RMPI 1640 medium (Sigma-Aldrich, Brondby, Denmark) containing 20% fetal calf serum (FCS) supplemented with 100 ng/ml M-CSF (GenScript Corporation, New Jersey, USA) and pencillin/streptomycin (pen/strep) for 7 days. The first 3 days in Tissue Culture Flasks at 37° C. and 5% CO2. The monocytes were then detached from the flask by flushing and scraping. The monocytes were divided into smaller portions and further grown for four days. […] cells per well were grown in 96 well tissue culture plates for TNF CBA use.\nSubsequently, the macrophages were activated in RMPI 1640 containing 5% FCS, 1 ug/ml lipopolysaccaride (LPS) (Sigma-Aldrich, Brøondby, Denmark) and 20 ng/ml INF-gamma (Genscript Corporation, New Jersey, USA) for 18 hours making them pro-inflammatory.\nThe pro-inflammatory macrophages were stimulated with RMPI160, 5% FCS, 1 ug/ml LPS and 20 ng/ml INF-gamma containing either dexamethasone, Ab-dexamethasone or no drug.\nTo detect the change in soluble TNF-alpha concentration we used the Cytometry Bead Array Kit (BD Biosciences, New Jersey, USA). The media from the in vitro stimulated macrophages (described earlier) grown in 96 well tissue culture plates were analyzed according to the manufacturer's protocol."}}, "note": "Values joined by “and” are separate entries in the source; they are usually repeats but may differ in a detail not shown here. Identical values can stand only once."}
{"molecule": "B1", "values": [{"measurement": "density of CD163 receptors per monocyte", "setting": "[1]; citrate stabilized whole blood", "result": "17,726"}, {"measurement": "fraction of CD14+ monocytes stained positive for CD163", "setting": "[1]; citrate stabilized whole blood", "result": 83.97, "unit": "%"}, {"measurement": "fraction of CD14+ monocytes stained positive for CD163", "setting": "[1]; freshly drawn EDTA stabilized whole blood", "result": "84.06% and 87.23%"}, {"measurement": "density of CD163 receptors per monocyte", "setting": "[1]; heparin stabilized whole blood", "result": "18,929"}, {"measurement": "fraction of CD14+ monocytes stained positive for CD163", "setting": "[1]; heparin stabilized whole blood", "result": 84.43, "unit": "%"}, {"measurement": "fraction of peripheral blood dendritic cells recognized as CD163 expressing", "setting": "[2]", "result": 32.3, "unit": "%"}, {"measurement": "effect on macrophages", "setting": "[3]", "result": "no effect different from buffer"}]}
